Measurements taken from patent US20210292396A1.

Tests used:
Experiment in all cases: cell-based or functional assay
[1] = target: HIV Env of isolate T250-4 (HIV)
[2] = target: Env of HIV isolate CH070.1 (clade BC) (HIV)
[3] = target: Env of HIV isolate DU172.17 (clade C) (HIV)
[4] = target: Env of HIV isolate 6644.v2.c33 (clade C) (HIV)
[5] = target: HIV Env of isolate 00836-2.5 (HIV)
[6] = target: Env of HIV isolate ZM176.66 (clade C) (HIV)
[7] = target: Env of HIV isolate Q769.h5 (clade A) (HIV)
[8] = target: Env of HIV isolate 263-8 (clade AG) (HIV)
[9] = target: HIV Env of isolate CNE19 (HIV)
[10] = target: Env of HIV isolate Q842.d12 (clade A) (HIV)
[11] = target: HIV Env of isolate P1981.C5.3 (HIV)
[12] = target: HIV Env of isolate 0439.v5.c1 (HIV)
[13] = target: HIV Env of isolate 5768.04 (HIV)
[14] = target: Env of HIV isolate CNE57 (clade B) (HIV)
[15] = target: Env of HIV isolate X1632.S2.B10 (clade G) (HIV)
[16] = target: Env of HIV isolate TH966.8 (clade AE) (HIV)
[17] = target: Env of HIV isolate T250-4 (clade AG) (HIV)
[18] = target: Env of HIV isolate 57128.vrc15 (clade D) (HIV)
[19] = target: HIV Env of isolate Q168.a2 (HIV)
[20] = target: HIV Env of isolate 001428-2.42 (HIV)
[21] = target: HIV Env of isolate ZM53.12 (HIV)
[22] = target: Env of HIV isolate SS1196.01 (clade B) (HIV)
[23] = target: HIV Env of isolate CNE4 (HIV)
[24] = target: Env of HIV isolate 426c (clade C) (HIV)
[25] = target: HIV Env of isolate 3468.v1.c12 (HIV)
Env of SIVmac251.30.SG3 = target: Env of SIVmac251.30.SG3
[26] = target: Env of HIV isolate MI369.A5 (clade A) (HIV)
[27] = target: HIV Env of isolate R2184.c4 (HIV)
[28] = target: Env of HIV isolate C1080.c3 (clade AE) (HIV)
[29] = target: HIV Env of isolate MN.3 (HIV)
[30] = target: HIV Env of isolate 235-47 (HIV)
[31] = target: HIV Env of isolate 6095.v1.c10 (HIV)
[32] = target: HIV Env of isolate 3718.v3.c11 (HIV)
[33] = target: Env of HIV isolate 6540.v4.c1 (clade AC) (HIV)
[34] = target: HIV Env of isolate 3365.v2.c20 (HIV)
[35] = target: Env of HIV isolate P1981.C5.3 (clade G) (HIV)
[36] = target: HIV Env of isolate 288.38 (HIV)
[37] = target: HIV Env of isolate T278-50 (HIV)
[38] = target: Env of HIV isolate AC10.29 (clade B) (HIV)
[39] = target: Env of HIV isolate 242-14 (clade AG) (HIV)
[40] = target: Env of HIV isolate 235-47 (clade AG) (HIV)
[41] = target: Env of HIV isolate BI369.9A (clade A) (HIV)
[42] = target: Env of HIV isolate QH0692.42 (clade B) (HIV)
[43] = target: Env of HIV isolate WITO.33 (clade B) (HIV)
[44] = target: HIV Env of isolate BI369.9A (HIV)
[45] = target: Env of HIV isolate CNE7 (clade BC) (HIV)
[46] = target: Env of HIV isolate 25710-2.43 (clade C) (HIV)
[47] = target: HIV Env of isolate 7165.18 (HIV)
[48] = target: Env of HIV isolate CNE56 (clade AE) (HIV)
[49] = target: HIV Env of isolate QH0515.01 (HIV)
[50] = target: Env of HIV isolate RW020.2 (clade A) (HIV)
[51] = target: HIV Env of isolate T257-31 (HIV)
[52] = target: HIV Env of isolate T266-60 (HIV)

## PGT121 (antibody)
[1]
  IC80: 0.0123 mg/L
[2]
  IC50, pseudovirus neutralization: 0.0137 mg/L
[3]
  IC50, pseudovirus neutralization: 0.065 mg/L
[4]
  IC50, pseudovirus neutralization: 0.037 mg/L
[5]
  IC80, pseudovirus neutralization: > 50 mg/L
[6]
  IC50, pseudovirus neutralization: 4.1 mg/L
[7]
  IC50, pseudovirus neutralization: > 50 mg/L
[8]
  IC50, pseudovirus neutralization: 0.484 mg/L
[9]
  IC80, pseudovirus neutralization: 0.041 mg/L
[10]
  IC50, pseudovirus neutralization: 0.0217 mg/L
[11]
  IC80, pseudovirus neutralization: 0.013 mg/L
[12]
  IC80: > 50 mg/L
[13]
  IC80: 0.917 mg/L
[14]
  IC50, pseudovirus neutralization: 0.0283 mg/L
[15]
  IC50, pseudovirus neutralization: > 50 mg/L
[16]
  IC50, pseudovirus neutralization: > 50 mg/L
[17]
  IC50, pseudovirus neutralization: 0.00433 mg/L
[18]
  IC50, pseudovirus neutralization: 1.27 mg/L
[19]
  IC80: > 50 mg/L
[20]
  IC80, pseudovirus neutralization: 0.108 mg/L
[21]
  IC80, pseudovirus neutralization: 0.00767 mg/L
[22]
  IC50, pseudovirus neutralization: 0.0123 mg/L
[23]
  IC80: 25.3 mg/L
[24]
  IC50, pseudovirus neutralization: > 50 mg/L
[25]
  IC80: 0.413 mg/L
Env of SIVmac251.30.SG3
  IC80, pseudovirus neutralization: > 50 mg/L
[26]
  IC50, pseudovirus neutralization: 0.0507 mg/L
[27]
  IC80: > 50 mg/L
[28]
  IC50, pseudovirus neutralization: > 50 mg/L
[29]
  IC80: > 50 mg/L
[30]
  IC80: 0.614 mg/L
[31]
  IC80: > 50 mg/L
[32]
  IC80: 4.76 mg/L
[33]
  IC50, pseudovirus neutralization: > 50 mg/L
[34]
  IC80: 0.639 mg/L
[35]
  IC50, pseudovirus neutralization: 0.007 mg/L
[36]
  IC80, pseudovirus neutralization: 0.0443 mg/L
[37]
  IC80: > 50 mg/L
[38]
  IC50, pseudovirus neutralization: 0.067 mg/L
[39]
  IC50, pseudovirus neutralization: > 50 mg/L
[40]
  IC50, pseudovirus neutralization: 0.132 mg/L
[41]
  IC50, pseudovirus neutralization: 0.0283 mg/L
[42]
  IC50, pseudovirus neutralization: 0.972 mg/L
[43]
  IC50, pseudovirus neutralization: 0.479 mg/L
[44]
  IC80: 0.085 mg/L
[45]
  IC50, pseudovirus neutralization: 0.0477 mg/L
[46]
  IC50, pseudovirus neutralization: 0.0227 mg/L
[47]
  IC80: 0.103 mg/L
[48]
  IC50, pseudovirus neutralization: > 50 mg/L
[49]
  IC80: > 50 mg/L
[50]
  IC50, pseudovirus neutralization: 0.01 mg/L
[51]
  IC80: > 50 mg/L
[52]
  IC80: 0.548 mg/L
